Results as given in patent publication US7563582B2, “Process for screening chemical compounds for modulating the interaction of an EVH1 domain and a process for detecting said interaction” (sanofi-aventis Deutschland GmbH, priority 2000, dated 2009).

Target: T1, VASP/zyxin interaction (Homo sapiens, UniProt P50552)
T1 construct: made in house; host or cells: VASP: insect cells (baculovirus); GST-zyxin(1-142): E. coli, given only for the homogeneous assay
Experiment: VASP-zyxin solid-phase (DELFIA) assay, competition with peptides
Type: binding
Conditions: competing zyxin peptides, FIG. 2
Method: In the solid-phase assay, a binding partner (VASP or zyxin) was immobilized on the surface of a microtiter plate (MTP) (=coating). The unsaturated binding sites on the surface of the plastic were blocked, and the surface was then incubated with the respective other binding partners. After the incubation, excess unattached protein was removed in a washing step. Using suitable antibodies, it was now possible to detect and quantify the specifically bound protein. Here, it was possible to improve the signal-noise (S/N) ratio considerably by using lanthanide chelates as fluorescent labels for the antibodies and the measurement of the time-resolved fluorescence.
For the solid-phase assay, the best coating and incubation conditions were characterized. […] For detecting VASP specifically bound to the immobilized zyxin, it was possible to use monoclonal antibodies against VASP which can be detected using lanthanide-labeled antibodies against mouse IgGs (Wallac: DELFIA anti-mouse-Eu(N1)).
The current assay protocol comprised 5 incubation steps and 3 washing steps: • 1. Incubation of the empty MTPs with GST-zyxin(1-142) (coating); • 2. Blocking with BSA (bovine serum albumin); • 3. Washing with PBS (wash buffer); • 4. Incubation with VASP (ligand) (with and without test substances); • 5. Washing with PBS; • 6. Incubation with detection mix: α-VASP (monoclonal anti-VASP antibody)+α-mouse-Eu (europium-labeled anti-mouse antibodies from Wallac); • 7. Washing with DELFIA wash solution; and • 8. Release of the bound lanthanide complex and fluorimetric measurement.
The optimum conditions for coating (GST-zyxin(1-142)) and ligand incubation (VASP) were determined by titrating the reagents. […] The volume per well used depended on the selected MTP format (50 μl or 100 μl for 96-well plates, 20 μl for 384-well plates).
Thus far, there are no known non-peptidergic inhibitors of the VASP/zyxin interaction To simulate the action of potential inhibitors, inhibition experiments were carried out using competing peptides which contained the VASP binding motif of zyxin (FPPPP (SEQ. ID. NO. 1)). […]

T1 sequence (P50552 whole entry): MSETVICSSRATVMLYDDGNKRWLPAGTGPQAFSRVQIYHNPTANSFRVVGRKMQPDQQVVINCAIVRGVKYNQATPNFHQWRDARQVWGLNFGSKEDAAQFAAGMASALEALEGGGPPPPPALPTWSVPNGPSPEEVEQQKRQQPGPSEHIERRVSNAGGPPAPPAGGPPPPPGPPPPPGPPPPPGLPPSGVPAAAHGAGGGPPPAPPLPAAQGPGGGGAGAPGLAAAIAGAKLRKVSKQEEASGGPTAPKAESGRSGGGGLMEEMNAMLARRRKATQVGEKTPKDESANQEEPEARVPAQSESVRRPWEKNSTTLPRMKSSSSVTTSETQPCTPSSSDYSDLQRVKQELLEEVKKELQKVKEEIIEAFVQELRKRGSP

Substance	apparent inhibition constants of the peptides (rank order of inhibition)
FPPPP: competing peptide containing the wild type VASP binding motif of zyxin, FPPPP	WPPPP (SEQ. ID. NO. 2)>FPPPP (SEQ. ID. NO. 1)>APPPP (SEQ. ID. NO. 3)
WPPPP: competing zyxin peptide containing the mutated VASP binding motif WPPPP	WPPPP (SEQ. ID. NO. 2)>FPPPP (SEQ. ID. NO. 1)>APPPP (SEQ. ID. NO. 3)
APPPP: competing zyxin peptide containing the mutated VASP binding motif APPPP	WPPPP (SEQ. ID. NO. 2)>FPPPP (SEQ. ID. NO. 1)>APPPP (SEQ. ID. NO. 3)

Target: VASP/ActA interaction (Homo sapiens, UniProt P50552)
Sequence (P50552 whole entry, species assumed): as the sequence (P50552 whole entry) above
Experiment: not given
Conditions: peptides with mutations in the FPPPP motif; cited from earlier work

Substance	inhibition of the VASP/ActA interaction (relative to wild type sequence FPPPP)
FPPPP: competing peptide containing the wild type VASP binding motif of zyxin, FPPPP	WPPPP (SEQ. ID. NO. 2)>FPPPP (SEQ. ID. NO. 1)>APPPP (SEQ. ID. NO. 3)
WPPPP: competing zyxin peptide containing the mutated VASP binding motif WPPPP	even better inhibition
APPPP: competing zyxin peptide containing the mutated VASP binding motif APPPP	considerably worse inhibition
